This note sets out measurements from patent US20090217392A1.

Experiment [1] deals with αvβ3 and αvβ5 integrins on cells that express both (M21, A375S2/A375S.2, HUVEC) (human) (UniProt P06756). Description: flow cytometry on M21 cells; FITC-goat anti-human Fc-labeled CNTO95 at 20 µg/mL, saline instead of competitor. A general note: A flow cytometer gives signals particle by particle.
Experiment [2] shares this target. Description: flow cytometry on M21 cells; FITC-goat anti-human Fc-labeled CNTO95 at 2 µg/mL, saline instead of competitor.
Experiment [3] has the same target. Description: cell-based or functional assay.
Experiment [4] addresses human αvβ3 integrin on cells (human) (UniProt P06756). Description: flow cytometry on M21 cells; signal of the competitor FITC-labeled CNTO95 at 20 µg/mL; row antibody at 20 µg/mL.
Experiment [5] has the same target. The experiment is described as follows: flow cytometry on M21 cells; signal of the competitor FITC-labeled CNTO95 at 2 µg/mL; row antibody at 20 µg/mL. Also on record: % Positive: reference not given here.
Experiment [6] addresses human αvβ5 integrin on cells (human) (UniProt P06756). The experiment is described as follows: flow cytometry on M21 cells; signal of the competitor FITC-labeled CNTO95 at 20 µg/mL; row antibody at 20 µg/mL.
The target is the same in experiment [7]. The experiment is described as follows: flow cytometry on M21 cells; signal of the competitor FITC-labeled CNTO95 at 2 µg/mL; row antibody at 20 µg/mL. Also on record: % Positive: reference not given here.
[8] abbreviates: scale: % of cell adhesion in the absence of antibody.

In experiment [1], CNTO 95 (antibody) registered an MCF (median channel fluorescence) of 14.3. In experiment [2], this substance had an MCF (median channel fluorescence) of 4.33. The same substance showed a minimal concentration for complete inhibition of MDAMB435L2 cell adhesion to vitronectin in experiment [3] of 1.5 µg/mL. In experiment [3] (setting [8]), this substance had an A375S.2 cell adhesion to fibrin, antibody 10 µg/ml of 43.3; an A375S.2 cell adhesion to fibrinogen, antibody 10 µg/ml of 11.4; an A375S.2 cell adhesion to gelatin, antibody 10 µg/ml of 23.2; an A375S.2 cell adhesion to vitronectin, antibody 10 µg/ml of 1.4. In experiment [3] (setting [8]), this substance returned an HUVEC adhesion to fibrin, antibody 10 µg/ml of 45.1; an HUVEC adhesion to fibrinogen, antibody 10 µg/ml of 34.5; an HUVEC adhesion to gelatin, antibody 10 µg/ml of 54.8; an HUVEC adhesion to vitronectin, antibody 10 µg/ml of 3.3.

In experiment [4], LM609 (antibody) displayed a % Positive of 93% and an MCF (median channel fluorescence) of 13.3. For the same substance, in experiment [5], the % Positive is 110% and the MCF (median channel fluorescence) came to 4.78.

For P1F6 (antibody), the % Positive in experiment [6] came to 101%; in experiment [7] it was 112%. In addition, the figures for the MCF (median channel fluorescence) in experiment [6] and in experiment [7] were 14.5 and 4.87, respectively.

On to m7E3 IgG (antibody), for which the % Positive in experiment [4] worked out at 103%; in experiment [5], 132%. In addition, the MCF (median channel fluorescence) was 14.7 in experiment [4] and 5.73 in experiment [5].
